# Laboratory results reported in publication PMC6753478 (Nucleic Acids Research, 2019).
# T1: FLAG-UPF1 (UniProt Q92900-2 1-1118)
# T1 sequence (looked up): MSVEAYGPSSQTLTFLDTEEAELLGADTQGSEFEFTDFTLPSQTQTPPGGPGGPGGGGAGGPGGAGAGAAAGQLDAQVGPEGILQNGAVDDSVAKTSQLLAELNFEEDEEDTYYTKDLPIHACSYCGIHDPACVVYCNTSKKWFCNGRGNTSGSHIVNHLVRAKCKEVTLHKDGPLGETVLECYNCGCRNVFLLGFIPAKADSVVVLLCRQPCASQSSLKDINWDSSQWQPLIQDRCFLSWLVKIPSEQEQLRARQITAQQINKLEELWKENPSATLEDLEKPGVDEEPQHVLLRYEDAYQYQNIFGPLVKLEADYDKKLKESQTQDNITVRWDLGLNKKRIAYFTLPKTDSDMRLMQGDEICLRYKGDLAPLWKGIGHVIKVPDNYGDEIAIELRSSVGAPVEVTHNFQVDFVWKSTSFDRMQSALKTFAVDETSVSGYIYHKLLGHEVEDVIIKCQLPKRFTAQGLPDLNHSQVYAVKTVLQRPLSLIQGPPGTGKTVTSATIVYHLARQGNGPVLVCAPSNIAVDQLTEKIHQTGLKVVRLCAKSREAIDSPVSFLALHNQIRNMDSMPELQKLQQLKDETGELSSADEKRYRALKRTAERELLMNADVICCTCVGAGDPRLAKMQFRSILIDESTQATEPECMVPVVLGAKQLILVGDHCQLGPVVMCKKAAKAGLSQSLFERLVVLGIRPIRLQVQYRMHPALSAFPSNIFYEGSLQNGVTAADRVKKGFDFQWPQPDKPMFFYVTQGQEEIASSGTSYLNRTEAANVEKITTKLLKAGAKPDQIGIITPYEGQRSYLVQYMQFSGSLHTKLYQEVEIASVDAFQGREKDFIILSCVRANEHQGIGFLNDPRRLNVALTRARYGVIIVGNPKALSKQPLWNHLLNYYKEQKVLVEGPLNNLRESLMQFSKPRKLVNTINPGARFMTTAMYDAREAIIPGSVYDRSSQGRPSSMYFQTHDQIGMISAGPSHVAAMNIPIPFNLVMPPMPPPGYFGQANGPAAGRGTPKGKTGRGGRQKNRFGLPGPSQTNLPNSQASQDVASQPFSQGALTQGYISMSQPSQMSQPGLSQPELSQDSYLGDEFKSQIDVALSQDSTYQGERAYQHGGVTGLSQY
# Molecular target: T1, FLAG-UPF1
# Assay: co-IP
binder,measurement,value
"staufen1 (STAU1), endogenous (natural protein, human (endogenous in HEK293T), UniProt O95793 1-577, looked up) MSQVQVQVQNPSAALSGSQILNKNQSLLSQPLMSIPSTTSSLPSENAGRPIQNSALPSASITSTSAAAESITPTVELNALCMKLGKKPMYKPVDPYSRMQSTYNYNMRGGAYPPRYFYPFPVPPLLYQVELSVGGQQFNGKGKTRQAAKHDAAAKALRILQNEPLPERLEVNGRESEEENLNKSEISQVFEIALKRNLPVNFEVARESGPPHMKNFVTKVSVGEFVGEGEGKSKKISKKNAAIAVLEELKKLPPLPAVERVKPRIKKKTKPIVKPQTSPEYGQGINPISRLAQIQQAKKEKEPEYTLLTERGLPRRREFVMQVKVGNHTAEGTGTNKKVAKRNAAENMLEILGFKVPQAQPTKPALKSEEKTPIKKPGDGRKVTFFEPGSGDENGTSNKEDEFRMPYLSHQQLPAGILPMVPEVAQAVGVSQGHHTKDFTRAAPNPAKATVTAMIARELLYGGTSPTAETILKNNISSGHVPHGPLTRPSEQLDYLSRVQGFQVEYKDFPKNNKNEFVSLINCSSQPPLISHGIGKDVESCHDMAALNILKLLSELDQQSTEMPRTGNGPMSVCGRC","fold change of the association after IR exposure, against untreated cells",3.1 fold
